The values that follow come from the supplement of paper PMC10567573.

To fix the notation:
B1: CLINT1 (parent)
chain: VVTSAREHIYDLRSLENYHFVDEH
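Note: lentivirally expressed fusions sorted by FACS into six bins by GFP to DsRed ratio, PSI derived from sequencing read proportions per bin multiplied by bin number.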

In the data set the parent is B1. Put plainly: protein stability index of a GFP-peptide fusion (GPS, HEK-293T) (PSI 1-6); higher = more stable. The note with it: c terminus: a fixed tail appended.
As to VVHSAREHIYDLRSLENYHFVDEH, the protein stability index worked out at 2.48.
As to VVLSAREHIYDLRSLENYHFVDEH, the protein stability index amounted to 2.32.
With VVESAREHIYDLRSLENYHFVDEH the figure was 3.84; with VVVSAREHIYDLRSLENYHFVDEH, 2.07; with VVYSAREHIYDLRSLENYHFVDEH, 2.24.
For the variant VVWSAREHIYDLRSLENYHFVDEH, the protein stability index was 2.31.
Regarding VVFSAREHIYDLRSLENYHFVDEH, the protein stability index was found to be 1.98.
As for VVRSAREHIYDLRSLENYHFVDEH, the protein stability index amounted to 3.09.
With VVQSAREHIYDLRSLENYHFVDEH the figure was 3.25; with VVPSAREHIYDLRSLENYHFVDEH, 2.99.
Turning to VVGSAREHIYDLRSLENYHFVDEH, the protein stability index turned out to be 3.78.
As for VVASAREHIYDLRSLENYHFVDEH, the protein stability index came to 2.62.
The value for VVMSAREHIYDLRSLENYHFVDEH was 2.1; that for VVSSAREHIYDLRSLENYHFVDEH was 2.89.
With VVCSAREHIYDLRSLENYHFVDEH the figure was 2.29.
Regarding VVNSAREHIYDLRSLENYHFVDEH, the protein stability index turned out to be 2.8.
VVDSAREHIYDLRSLENYHFVDEH: the protein stability index worked out at 3.52.
Consider VVISAREHIYDLRSLENYHFVDEH, for which the protein stability index came to 2.04.
For the variant VVKSAREHIYDLRSLENYHFVDEH, the protein stability index came out at 3.11.
For VCTSAREHIYDLRSLENYHFVDEH, the protein stability index amounted to 2.9.
As to VLTSAREHIYDLRSLENYHFVDEH, the protein stability index worked out at 3.23.
Turning to VYTSAREHIYDLRSLENYHFVDEH, the protein stability index was found to be 2.67.
The value for VMTSAREHIYDLRSLENYHFVDEH was 3.2.
For VITSAREHIYDLRSLENYHFVDEH, the protein stability index was found to be 2.3.
The value for VHTSAREHIYDLRSLENYHFVDEH was 3.44; that for VNTSAREHIYDLRSLENYHFVDEH was 3.62.
The value for VETSAREHIYDLRSLENYHFVDEH was 3.67; that for VATSAREHIYDLRSLENYHFVDEH was 3.34; that for VPTSAREHIYDLRSLENYHFVDEH was 4.19.
With VWTSAREHIYDLRSLENYHFVDEH the figure was 2.38.
For the variant VGTSAREHIYDLRSLENYHFVDEH, the protein stability index amounted to 3.34.
As for VDTSAREHIYDLRSLENYHFVDEH, the protein stability index was 4.26.
The value for VFTSAREHIYDLRSLENYHFVDEH was 2.56.
With VSTSAREHIYDLRSLENYHFVDEH the figure was 3.12; with VTTSAREHIYDLRSLENYHFVDEH, 3.24; with VRTSAREHIYDLRSLENYHFVDEH, 3.13.
The value for VQTSAREHIYDLRSLENYHFVDEH was 3.53; that for VKTSAREHIYDLRSLENYHFVDEH was 3.01.
Regarding VVTSAREHIGDLRSLENYHFVDEH, the protein stability index worked out at 3.91.
For the variant VVTSAREHIFDLRSLENYHFVDEH, the protein stability index worked out at 2.42.
The value for VVTSAREHIKDLRSLENYHFVDEH was 3.64.
For VVTSAREHIADLRSLENYHFVDEH, the protein stability index turned out to be 3.84.
The value for VVTSAREHINDLRSLENYHFVDEH was 3.71.
The value for VVTSAREHIDDLRSLENYHFVDEH was 3.94; that for VVTSAREHIPDLRSLENYHFVDEH was 4.21; that for VVTSAREHIRDLRSLENYHFVDEH was 3.78.
As to VVTSAREHIMDLRSLENYHFVDEH, the protein stability index turned out to be 3.01.
The value for VVTSAREHILDLRSLENYHFVDEH was 2.71; that for VVTSAREHIVDLRSLENYHFVDEH was 2.67; that for VVTSAREHIQDLRSLENYHFVDEH was 3.75.
For the variant VVTSAREHISDLRSLENYHFVDEH, the protein stability index was 3.37.
For VVTSAREHIIDLRSLENYHFVDEH, the protein stability index is 2.32.
Take VVTSAREHIWDLRSLENYHFVDEH: the protein stability index worked out at 2.06.
On to VVTSAREHICDLRSLENYHFVDEH, for which the protein stability index was 3.66.
The value for VVTSAREHIEDLRSLENYHFVDEH was 4.17.
As for VVTSAREHIHDLRSLENYHFVDEH, the protein stability index came to 2.9.
Consider VVTSAREHITDLRSLENYHFVDEH, for which the protein stability index came out at 3.8.
In the case of VVTSACEHIYDLRSLENYHFVDEH, the protein stability index turned out to be 2.91.
The value for VVTSANEHIYDLRSLENYHFVDEH was 3.14; that for VVTSATEHIYDLRSLENYHFVDEH was 2.75; that for VVTSAIEHIYDLRSLENYHFVDEH was 1.84.
As to VVTSAHEHIYDLRSLENYHFVDEH, the protein stability index was determined as 3.07.
In the case of VVTSAEEHIYDLRSLENYHFVDEH, the protein stability index is 3.87.
In the case of VVTSALEHIYDLRSLENYHFVDEH, the protein stability index came to 1.75.
The value for VVTSAGEHIYDLRSLENYHFVDEH was 3.04; that for VVTSAYEHIYDLRSLENYHFVDEH was 2.35.
Consider VVTSAMEHIYDLRSLENYHFVDEH, for which the protein stability index is 2.33.
On to VVTSAWEHIYDLRSLENYHFVDEH, for which the protein stability index was found to be 3.17.
As to VVTSASEHIYDLRSLENYHFVDEH, the protein stability index is 3.93.
The value for VVTSAQEHIYDLRSLENYHFVDEH was 3.4; that for VVTSAAEHIYDLRSLENYHFVDEH was 2.45.
For the variant VVTSAPEHIYDLRSLENYHFVDEH, the protein stability index is 3.08.
Regarding VVTSAFEHIYDLRSLENYHFVDEH, the protein stability index is 1.55.
Take VVTSAKEHIYDLRSLENYHFVDEH: the protein stability index is 3.48.
With VVTSAVEHIYDLRSLENYHFVDEH the figure was 2.31.
Consider VVTSADEHIYDLRSLENYHFVDEH, for which the protein stability index was determined as 3.63.
For the variant VVTSARGHIYDLRSLENYHFVDEH, the protein stability index stood at 1.73.
Take VVTSARSHIYDLRSLENYHFVDEH: the protein stability index was determined as 2.4.
Take VVTSARPHIYDLRSLENYHFVDEH: the protein stability index was 2.44.
Consider VVTSARQHIYDLRSLENYHFVDEH, for which the protein stability index turned out to be 1.85.
Turning to VVTSARYHIYDLRSLENYHFVDEH, the protein stability index is 2.57.
The value for VVTSARTHIYDLRSLENYHFVDEH was 2.73.
In the case of VVTSARRHIYDLRSLENYHFVDEH, the protein stability index was 2.07.
VVTSARHHIYDLRSLENYHFVDEH: the protein stability index came out at 2.17.
With VVTSARNHIYDLRSLENYHFVDEH the figure was 2.64; with VVTSARMHIYDLRSLENYHFVDEH, 1.39.
With VVTSARVHIYDLRSLENYHFVDEH, the protein stability index worked out at 2.26.
VVTSARLHIYDLRSLENYHFVDEH: the protein stability index was 2.3.
The value for VVTSARAHIYDLRSLENYHFVDEH was 2.41; that for VVTSARWHIYDLRSLENYHFVDEH was 2.44.
For the variant VVTSARDHIYDLRSLENYHFVDEH, the protein stability index is 2.29.
On to VVTSARCHIYDLRSLENYHFVDEH, for which the protein stability index is 1.86.
As to VVTSARKHIYDLRSLENYHFVDEH, the protein stability index is 2.77.
With VVTSARFHIYDLRSLENYHFVDEH the figure was 1.9.
